B1: HCV E1 glycoprotein, H77 WT isolate [hepatitis C virus] / CD81 receptor [not stated] (parent complex)
chain 1: YQVRNSSGLYHVTNDCPNSSVVYEAADAILHTPGCVPCVREGNASRCWVAVTPTVATRDGKLPTTQLRRHIDLLVGSATLCSALYVGDLCGSVFLVGQLFTFSPRHHWTTQDCNCSIYPGHITGHRMAWNMMMNWSPTAALVVAQLLRIPQAIMDMIAGAHWGVLAGIKYFSMVGNWAKVLVVLLLFAGVDA
chain 2: MGVEGCTKCIKYLLFVFNFVFWLAGGVILGVALWLRHDPQTTNLLYLELGDKPAPNTFYVGIYILIAVGAVMMFVGFLGCYGAIQESQCLLGTFFTCLVILFACEVAAGIWGFVNKDQIAKDVKQFYDQALQQAVVDDDANNAKAVVKTFHETLDCCGSSTLTALTTSVLKNNLCPSGSNIISNLFKEDCHQKIDDLFSGKLYLIGIAAIVVAVIMIFEMILSMVLCCGIRNSSVY

The variants in the test derive from B1. Put plainly: CD81 receptor binding (method in S1 Text, not given); parent: 1; read off a plot.
With chain 1 C47A, chain 1 C115A, the ratio to parent was around 0.85. As for chain 1 C81A, chain 1 C90A, the ratio to parent is around 1.1. chain 1 E24C, chain 1 I29C: the ratio to parent was around 0.65. To chain 1 R4C, chain 1 Q111C belongs around 0.6; to chain 1 C38A, chain 1 C113A, around 0.85.

Consider chain 1 C16A, chain 1 C35A, for which the ratio to parent is around 0.8.
